Source: patent US20060045876A1 (LUDWIG INSTITUTE FOR CANCER RESEARCH, published 2006)

Legend:
recombinant human GM-CSF = biological target: T1, recombinant human GM-CSF (human, UniProt P04141 18-144); experiment: SPR (BIAcore 2000), rhGM-CSF on the chip, global fitting of Rmax
T1 construct: also called rhGM-CSF
Experimental: Biosensor analyses were carried out using a commercially available, BIAcore 2000, and a carboxymethyldetran coated sensor chip. The chip was derivatized with 1000, 300, or 100 RVs of recombinant human GM-CSF, on channels 1, 2, and 3 of the machine using standard amine coupling chemistry with channel 4 retained as the control blank channel.
After injection, dissociation was monitored by allowing HBS buffer to flow over the chip surface for 5 minutes. Any bound antibody was then eluted, and the chip surface was regenerated, between samples, via injecting 40 μl of 100 mM HCl, pH 2.7, at a rate of 5 μl/min.

G250 antigen = G250 antigen (UniProt Q16790 38-459); experiment: flow cytometry (FACS) on G250 positive tumor cells

T1 sequence (P04141 18-144 limits assumed): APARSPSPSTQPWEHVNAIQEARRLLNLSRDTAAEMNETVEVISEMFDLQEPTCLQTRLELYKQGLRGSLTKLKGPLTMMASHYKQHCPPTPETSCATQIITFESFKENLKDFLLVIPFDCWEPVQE

Ka (recombinant human GM-CSF) [M⁻¹]	koff (recombinant human GM-CSF) [s⁻¹]	binding result (G250 antigen)	Binder
2.69e+10	1.9e-05	–	chimeric 19/2 anti-human GM-CSF monoclonal antibody (antibody, V domains shown, made in CHO DG44 cells; also called chimeric 19/2 antibody; ch19/2) VH: EVQLQQSGPELVKPGASVKISCKASGYTFTDYNIHWVKQSHGKSLDWIGYIAPYSGGTGYNQEFKNRATLTVDKSSSTAYMELRSLTSDDSAVYYCARRDRFPYFDYWGQGTTLRVSS VL: DIVMIQSQKFVSTSVGDRVNITCKASQNVGSNVAWLQQKPGQSPKTLIYSASYRSGRVPDRFTGSGSGTDFILTITTVQSEDLAEYFCQQFNRSPLTFGSGTKLELKR
–	–	binds	chimeric G250 antibody (antibody, V domains shown, Used as positive control in FACS; Its making is not described apart from this) VH: DVKLVESGAALVKLGGSLKLSCAASGFTFSNYYMSWVRQTPEKRLELVAAINSDGGITYYLDTVKGRFTISRDNAKNTLYLQMSSLKSEDTALFYCARHRSGYFSMDYWGQGTSVTVSS VL: DIVMTQSQRFMSTTVGDRVSITCKASQNVVSAVAWYQQKPGQSPKLLIYSASNRYTGVPDRFTGSGSGTDFTLTISNMQSEDLADFFCQQYSNYPWTFGGGTKLEIKR
